Key:
[1] = system: rose (Noblesse, Ritapa Humera); experiment: Flower petal pigment analysis of recombinant rose introduced with NmGT8; format: in vivo
From the text: Binary vectors pSPB4577, pSBP4578, pSBP5437 and pSBP5440 for expressing NmGT8 were constructed and introduced into rose (Noblesse, Ritapa Humera). […] Details of the introduced constructs are described below (see FIG. 21).
(§1) pBINPLUS was used for the basic skeleton of pSPB5477, and three expression cassettes were contained therein (consisting of 1: EI235S promoter, full-length cDNA pansy F3′5′H and mas terminator; 2: EI235S promoter, full-length cDNA torenia flavone synthase and mas terminator; and, 3: EI235S promoter, full-length cDNA NmGT8 and mas terminator).
as §1, with “of pSPB4578,” for “of pSPB5477,”, “1: perilla anthocyanin 3-acyltransferase promoter (described in PCT/JP2010/053909),” for “1: EI235S promoter,”, “terminator). […]” for “terminator).”
Pigments in the flower petals were analyzed for full-length cDNA torenia flavone synthase and full-length cDNA NmGT8 in those strains in which transcription products were confirmed. […] The flower petal extract was analyzed by high-performance liquid chromatography (Prominence (Shimadzu Corp.)). […] Non-recombinant rose not introduced with the genes was analyzed in the same manner as a control (FIG. 22). Flower petal extract diluted 50-fold was also analyzed with a high-performance liquid chromatograph (Shimadzu Corp.). The Shimadzu LCMS-IF-TOF was used for the detector and flavones were detected at […] ([Api-Glc+H]) and […] ([Lut-Glc+H]). […]

NmGT8 protein = experiment: Enzyme reaction of flavone substrates with His-tag purified NmGT8 protein solution and UDP-glucose (HPLC); format: biochemical, Nemophila menziesii; settings: reactivity to various flavonoid compounds of FIG. 11 and betanidine
Protocol: The transformed E. coli were cultured at 37° C. to an OD600 value of 0.5 in 8 ml of the prepared culture liquid (approx. 4 hours). This E. coli culture liquid was then used as a pre-culture liquid and added to 200 ml of culture liquid followed by final culturing overnight at 25° C.
Following final culturing overnight, the E. coli culture liquid was centrifuged (1000×g, 4° C., 10 minutes), the collected cells were suspended in 20 ml of extract (composition: buffer (KCl: 300 mM, KH2PO4: 50 mM, imidazole: 5 mm) (pH 8.0), amidinophenylmethanesulfonyl fluoride hydrochloride (APMSF): 10 μM), and after crushing the E. coli by ultrasonic treatment, the crushed cells were centrifuged (1400×g, 4° C., 20 minutes) followed by recovery of the supernatant. This supernatant was passed through a 0.45 μm filter and purified by His-Tag protein purification using Profinia (Bio-Rad Laboratories, Inc.) in accordance with the protocol recommended by the manufacturer. The resulting purified protein solution was centrifuged (7500×g, 4° C., 15 minutes) using centrifugal filters (Ultracel-10K, Amicon Corp.) and the concentrated protein solution was designated as “NmGT8 Protein Solution”. The Avanti HP-26XP (rotor: JA-2) (Beckman Coulter Inc.) was used for centrifugation.
A reaction liquid prepared by mixing 10 μl of protein solution, 2 μl of 50 mM UDP-glucose, 10 μl of 1 M Tris HCl (pH 7.5) and 5 μl of 1 mM apigenin on ice and bringing to a volume of 100 μl with water was held for 20 minutes at 30° C. Subsequently, 100 μl of stop buffer (90% aqueous acetonitrile solution containing 0.1% TFA) were added to stop the reaction followed by analyzing the reaction liquid by high-performance liquid chromatography (Prominence (Shimadzu Corp.)). The Shimadzu PDA SPD-M10AVP was used for the detector and flavone was detected at 330 nm. The Shim-Pack ODS 150 mm×4.6 mm column (Shimadzu Corp.) was used for the column. A Solution A (0.1% aqueous TFA solution) and a Solution B (90% aqueous methanol solution containing 0.1% TFA) were used for elution. Elution was carried out using a linear concentration gradient from an 8:2 mixture of the two solutions to a 3:7 mixture of the two solutions over the course of 10 minutes followed by a 3:7 mixture for 6 minutes. The flow rate was 0.6 ml/min.

[2] = recombinant rose flower petal extract, LC-MS

B1: NmGT8: nemophila glycosyltransferase (SEQ ID NO: 1/2) having activity that transfers a sugar to the hydroxyl group at the 4′-position of a flavone (protein, listed as Nemophila menziesii)
chain: MEKKTIILYPSPGIGHLVSMVELAKLILNREPSYSIIIFISSAPYSTGSSAPYISHVSATTSGISFHHLPVLVLPPNTFSSFEEIAYKIPQLNNPNLKLALQTISKESSDLKAFIIDFFCTAAVEVSSNLEIPTYFFFTSGSSAMCQFLYLPTLHETITQKDLQDPNTYVHIPGIPPIHSLDLPKVLSNRSTVLYKELINTANQMAKCSGILINAFETLEPKAVKALKEGLCTPGMPTPPVYCIGPLIASGDKGNVNDAHGHEILTWLNSQPSKSVVFLCFGSLGTFKEDQLKEIAIGLENSGHRFLWVMKSPPIDDKTKRFLPPPEPDFNVLLPEGFLERTKERGVIVKSWAPQLAILNHDAIGGFVTHCGWNSVLEAICGGVPMLAWPLYAEQRVNRVCMVEEMKVALPLEESVDGFVMASEIEKRVKELVDYESSEAIRDQVKIMSEKAKTAVAVSGSSHDALTKLLDGWK
For B1, the “flavone 4′-glucoside share of the biosynthesized flavones” value [1, 2] was 97.0%, the “flavone 7-glucoside share of the biosynthesized flavones” value [1, 2] was 3.0% and the “flavones detected in flower petals” value ([1]; recombinant rose introduced with flavone synthase and NmGT8, HPLC) was “apigenin 4′-glucoside and luteolin 4′-glucoside were detected”. For the same molecule, the substrate specificity (NmGT8 protein) was “high substrate specificity and selectively glycosylate the 4′-position of flavones”.
